In publication PMC2946066 (Toxicon : official journal of the International Society on …, 2010):

Biological target: CFP/B-Lc (BoNT/B protease fused to CFP) (Clostridium botulinum, BoNT type B; …, UniProt P10844)
Assay: pull-down

B1: YFP/B10 (VHH BLc-B10 fused to an amino terminal streptavidin binding peptide and YFP) (VHH)
VHH: QLQLVESGGGMVQPGGSLRLSCAASGFTFSTYDMSWVRQAPGKGPEWVSIINAGGGSTYYAASVKGRFAISRDNAKNTLYLQMNNLKPEDTALYYCARVASYYCRGYVCSPPEFDYWGQGTQVTVSS
  binding result: binds
